Reference: article PMC9402538 (2022)
The star is where a group is joined. FITC = O=C1OC2(c3ccc(O)cc3Oc3cc(O)ccc32)c2ccc(NC(=S)*)cc21; Cbz = O=C(OCc1ccccc1)*

T1: APC (303–739) (UniProt P25054 303-739)
T1 chain: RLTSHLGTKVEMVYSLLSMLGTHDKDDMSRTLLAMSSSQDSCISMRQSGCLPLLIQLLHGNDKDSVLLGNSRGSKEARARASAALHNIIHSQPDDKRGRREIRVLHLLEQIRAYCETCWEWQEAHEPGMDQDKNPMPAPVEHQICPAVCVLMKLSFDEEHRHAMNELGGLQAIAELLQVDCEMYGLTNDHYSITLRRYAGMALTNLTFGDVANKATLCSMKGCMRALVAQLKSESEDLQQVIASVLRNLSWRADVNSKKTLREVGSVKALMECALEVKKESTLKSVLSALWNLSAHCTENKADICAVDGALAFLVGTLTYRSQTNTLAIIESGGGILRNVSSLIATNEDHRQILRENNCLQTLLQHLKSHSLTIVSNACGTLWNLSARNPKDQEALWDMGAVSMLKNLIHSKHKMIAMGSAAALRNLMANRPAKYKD


Target: T1, APC (303–739)
Assay: ITC

Ka [M⁻¹]	Binder
1.73e+06	Ac-GGGGEQLAINELISDGK(FITC)-NH2 [tracer 1 (Ac–GGGGEQLAINELISDGK[FITC]–NH2)]
1.29e+07	Cbz-AGESLYEK(FITC)-NH2 [tracer 7 (Z–AGESLYEK[FITC]–NH2)]
